# Source: patent US8871909B2, “Antibodies inhibiting c-Met dimerization and uses thereof” (Pierre Fabre Medicament, priority 2007, dated 2014)
# Key:
# NCI-H441 [1] = test: In vivo combination of 224G11 and Navelbine on NCI-H441 xenograft model (Example 19); design: species or system Athymic nude mice; conditions: day 41 post first injection
# Experimental: NCI-H441 cells from ATCC were routinely cultured in RPMI 1640 medium, 10% FCS, 1% L-Glutamine. Cells were split two days before engraftment being in exponential phase of growth. Ten million NCI-H441 cells were engrafted to Athymic nude mice. […] Mice were treated i.p. either with a loading dose of 2 mg of 224G11 Mab/mouse and then twice a week with 1 mg of antibody/mouse until Day 38 or with 3 injections of Navelbine® (D5, D12, D19) at 8 mg/kg. A third group administered with the combine treatment was also included. Navelbine® was given by i.p. injections. Tumor volume was measured twice a week and calculated by the formula: π/6×length×width×height and animal weights were monitored every day over the period of Navelbine® treatment. Statistical analysis was performed at each measured time using either a t-test or a Mann-Whitney test. […] Results are represented in FIG. 45.
# HGF-cMet = biological target: T1, HGF-cMet (Homo sapiens, UniProt P08581); test: HGF-cMet competition assay (ELISA); type: binding; conditions: at high antibody concentration, purified murine antibodies
# T1 construct: recombinant c-Met-Extra-Cellular Domain (ECD) fused to an human IgG Fc domain
# T1 sequence (P08581 25-932 limits assumed): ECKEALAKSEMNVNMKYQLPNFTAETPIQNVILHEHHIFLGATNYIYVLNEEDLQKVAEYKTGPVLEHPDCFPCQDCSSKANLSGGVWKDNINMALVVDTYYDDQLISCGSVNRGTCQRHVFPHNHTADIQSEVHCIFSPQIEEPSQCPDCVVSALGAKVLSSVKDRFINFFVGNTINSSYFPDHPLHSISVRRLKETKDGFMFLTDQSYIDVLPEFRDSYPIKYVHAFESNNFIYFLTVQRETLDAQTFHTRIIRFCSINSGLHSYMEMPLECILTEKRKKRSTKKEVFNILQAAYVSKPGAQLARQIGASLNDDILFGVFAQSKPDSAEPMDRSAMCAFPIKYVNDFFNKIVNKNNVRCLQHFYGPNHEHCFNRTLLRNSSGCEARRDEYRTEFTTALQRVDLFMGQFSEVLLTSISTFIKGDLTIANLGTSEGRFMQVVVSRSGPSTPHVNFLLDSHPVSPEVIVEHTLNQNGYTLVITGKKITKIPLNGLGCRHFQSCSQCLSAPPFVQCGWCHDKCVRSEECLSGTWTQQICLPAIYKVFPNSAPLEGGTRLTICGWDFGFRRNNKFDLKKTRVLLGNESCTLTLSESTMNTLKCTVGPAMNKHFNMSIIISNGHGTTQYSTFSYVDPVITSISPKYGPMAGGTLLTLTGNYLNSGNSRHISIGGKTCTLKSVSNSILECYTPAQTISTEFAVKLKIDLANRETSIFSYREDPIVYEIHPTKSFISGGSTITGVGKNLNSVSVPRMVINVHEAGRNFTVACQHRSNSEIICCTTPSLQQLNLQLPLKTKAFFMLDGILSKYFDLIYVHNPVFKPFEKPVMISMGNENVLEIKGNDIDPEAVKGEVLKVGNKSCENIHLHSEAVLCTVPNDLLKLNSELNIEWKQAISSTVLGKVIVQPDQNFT
# Text: FIG. 54: HGF-cMet competition assay. In this ELISA-based assay, recombinant Fc-cMET residual binding to plastic coated HGF in the presence of purified murine monoclonal antibodies 11E1, 224G11 and 227H1 was detected with […] and measured at 450 nm;
# FIG. 58: HGF-cMet competition assay of 227H1 murine and recombinant antibodies. In this ELISA-based assay, recombinant Fc-cMet residual binding to plastic coated HGF in the presence of the different forms of the 227H1 antibody was detected with a biotinylated unrelated anti-cMet antibody. Purified murine 227H1 monoclonal antibody, chimeric and HZ4VH-derived humanized 227H1-derived recombinant antibodies were tested and compared for their abilities to compete with HGF-cMet binding when measured at 450 nm;
# Humanization of the anti-cMet antibodies were performed independently for each chain and sequentially, regarding to the analysed amino acids in each variable domain. The humanization process was evaluated in a first attempt in an ELISA-based binding assay to recombinant Fc-cMet; binding activities the humanized antibodies being compared to the recombinant chimeric antibody. In a second attempt, anti-cMet humanized antibodies were evaluated for their abilities to displace the Fc-cMet binding onto plastic-coated recombinant HGF; this competition assay allowing the direct comparison of murine, chimeric and humanized versions of the anti-cMet antibodies.
# These two assays were used to characterize the recombinant chimeric and humanized versions of the murine anti-cMet antibodies. To this end, briefly, anti-cMet variable domains, either murine or humanized, were cloned into LONZA's pCONplus expression vectors series and recombinant IgG1/κ-derived antibodies were expressed in CHO cells. […] Both direct binding and HGF-competition assays were assessed to better characterize recombinant chimeric or humanized versions.
# BxPC3 cells = test: In vitro inhibition of BxPC3 proliferation ([3H]thymidine incorporation); type: cell-based; conditions: BxPC3, in absence of ligand, antibody alone
# Experimental: For that purpose 50 000 BxPC3 cells were plated in 96 well plates in RPMI medium, 2 mM L. Glutamine, without SVF. […] After 3 days, cells were pulsed with 0.5 μCi of [^3H]thymidine for 16 hours. The magnitude of [^3H]thymidine incorporated into trichloroacetic acid-insoluble DNA was quantified by liquid scintillation counting. Results were expressed as raw data to really evaluate the intrinsic agonistic effect of each Mab (FIGS. 2A and 2B).
# A549 cells = test: Matrigel invasion assay with A549 cells; type: cell-based; conditions: A549, Mab 10 μg/ml, basal (no HGF)
# Experimental: To evaluate the inhibiting effect of the anti-c-Met antibodies on the invasion process, A549 cells were plated in the upper chamber of BD BioCoat™ Matrigel™ invasion chambers (6.5 mm diameter wells with 8-μm pre size polycarbonate membranes). A459 cells were starved 24 hours before performing the invasion assay. Then 500 000 A549 cells were plated in chemotaxis buffer (DMEM medium, 0.1% BSA, 12 mM Hepes) in the upper well of each chamber, upon the Matrigel coating either with or without the antibody to be tested (final Mab concentration 10 μg/ml). After 1 hour incubation of the plates at 37° C. with 5% CO2, the lower chambers were filled with either growth medium containing 400 ng/ml of rhHGF or with growth medium alone. The chambers were incubated for 48 additional hours at 37° C. with 5% CO2. At the end of this incubation time, cells that remained on upper surface of the filter were gently removed with a cotton swab, cells that migrated to the lower surface of the filter were lysed, stained with CyQuant GR dye buffer (Invitrogen) and counted using a fluorescence reader Berthold Mithras LB940. All conditions were tested as triplicates.
# c-Met = test: BRET analysis of c-Met dimerization on c-Met transfected CHO cells; type: cell-based; conditions: CHO cells expressing C-Met-Rluc and C-Met-K1100A-YFP, supernatants
# Chain of c-Met (P08581 25-307 limits assumed): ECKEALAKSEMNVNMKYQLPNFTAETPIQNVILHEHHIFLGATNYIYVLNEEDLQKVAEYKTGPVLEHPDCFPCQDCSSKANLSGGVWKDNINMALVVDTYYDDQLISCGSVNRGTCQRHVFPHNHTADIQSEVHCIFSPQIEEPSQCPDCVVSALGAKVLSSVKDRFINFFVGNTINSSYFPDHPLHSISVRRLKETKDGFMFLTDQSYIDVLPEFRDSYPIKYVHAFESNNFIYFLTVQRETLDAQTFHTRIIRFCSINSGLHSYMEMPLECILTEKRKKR
# Chain of c-Met (P08581 308-932 limits assumed): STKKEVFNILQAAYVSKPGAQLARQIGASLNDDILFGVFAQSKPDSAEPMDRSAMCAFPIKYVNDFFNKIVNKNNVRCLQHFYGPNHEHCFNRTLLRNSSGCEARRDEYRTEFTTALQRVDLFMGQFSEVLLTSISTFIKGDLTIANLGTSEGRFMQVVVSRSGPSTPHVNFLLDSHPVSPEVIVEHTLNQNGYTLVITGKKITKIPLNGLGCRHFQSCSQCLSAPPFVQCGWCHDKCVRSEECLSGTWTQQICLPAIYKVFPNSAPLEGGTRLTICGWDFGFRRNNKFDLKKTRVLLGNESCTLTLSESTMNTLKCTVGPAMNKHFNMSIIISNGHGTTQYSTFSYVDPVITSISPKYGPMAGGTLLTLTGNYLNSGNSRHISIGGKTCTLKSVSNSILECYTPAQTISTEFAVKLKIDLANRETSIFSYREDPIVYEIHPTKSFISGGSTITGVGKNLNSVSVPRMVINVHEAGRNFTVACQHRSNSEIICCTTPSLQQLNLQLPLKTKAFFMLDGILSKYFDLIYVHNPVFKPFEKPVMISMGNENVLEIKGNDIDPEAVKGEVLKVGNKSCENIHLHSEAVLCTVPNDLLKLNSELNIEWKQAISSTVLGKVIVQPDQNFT
# Text: The technology BRET, used in the step iii) of the process, is well known by the person skill in the art and will be detailed in the following examples. More particularly, BRET (Bioluminescence Resonance Energy Transfer) is a non-radiative energy transfer occurring between a bioluminescent donor (Renilla Luciferase (Rluc)) and a fluorescent acceptor, a mutant of GFP (Green Fluorescent Protein) or YFP (Yellow fluorescent protein). In the present case EYFP (Enhanced Yellow Fluorescent Protein) was used. The efficacy of transfer depends on the orientation and the distance between the donor and the acceptor. Then, the energy transfer can occur only if the two molecules are in close proximity (1-10 nm). This property is used to generate protein-protein interaction assays. Indeed, in order to study the interaction between two partners, the first one is genetically fused to the Renilla Luciferase and the second one to the yellow mutant of the GFP. Fusion proteins are generally, but not obligatory, expressed in mammalian cells. In presence of its membrane permeable substrate (coelenterazine), Rluc emits blue light. If the GFP mutant is closer than 10 nm from the Rluc, an energy transfer can occur and an additional yellow signal can be detected. The BRET signal is measured as the ratio between the light emitted by the acceptor and the light emitted by the donor. So the BRET signal will increase as the two fusion proteins are brought into proximity or if a conformational change bring Rluc and GFP mutant closer.
# Then antibodies inhibiting at least 50% cell proliferation were evaluated as supernatants by BRET analysis on c-Met transfected cells. For that purpose, CHO stable cell lines expressing C-Met-Rluc or C-Met-Rluc and C-Met-K1100A-YFP were generated. Cells were distributed in white 96 well microplates in DMEM-F12/FBS 5% culture medium one or two days before BRET experiments. Cells were first cultured at 37° C. with CO2 5% in order to allow cell attachment to the plate. Cells were then starved with 200 μl DMEM/well overnight. Immediately prior to the experiment, DMEM was removed and cells quickly washed with PBS. Cells were incubated in PBS in the presence or absence of antibodies to be tested or reference compounds, 10 min at 37° C. prior to the addition of coelenterazine with or without HGF in a final volume of 50 μl. […]
# BRET ratio has been defined previously [Angers et al., Proc. Natl. Acad. Sci. USA, 2000, 97:3684-3689] as: [(emission at 530 nm)−(emission at 485 nm)×Cf]/(emission at 485 nm), where Cf corresponds to (emission at 530 nm)/(emission at 485 nm) for cells expressing Rluc fusion protein alone in the same experimental conditions. […] For the sake of readability, results are expressed in milliBRET units (mBU); mBU corresponds to the BRET ratio multiplied by 1000.
# SEMA domain = biological target: T2, SEMA domain (Homo sapiens, UniProt P08581); test: ELISA recognition of recombinant SEMA domain; type: binding
# T2 construct: the recombinant c-Met-Fc protein and the recombinant SEMA domain
# T2 sequence (P08581 27-515 limits assumed): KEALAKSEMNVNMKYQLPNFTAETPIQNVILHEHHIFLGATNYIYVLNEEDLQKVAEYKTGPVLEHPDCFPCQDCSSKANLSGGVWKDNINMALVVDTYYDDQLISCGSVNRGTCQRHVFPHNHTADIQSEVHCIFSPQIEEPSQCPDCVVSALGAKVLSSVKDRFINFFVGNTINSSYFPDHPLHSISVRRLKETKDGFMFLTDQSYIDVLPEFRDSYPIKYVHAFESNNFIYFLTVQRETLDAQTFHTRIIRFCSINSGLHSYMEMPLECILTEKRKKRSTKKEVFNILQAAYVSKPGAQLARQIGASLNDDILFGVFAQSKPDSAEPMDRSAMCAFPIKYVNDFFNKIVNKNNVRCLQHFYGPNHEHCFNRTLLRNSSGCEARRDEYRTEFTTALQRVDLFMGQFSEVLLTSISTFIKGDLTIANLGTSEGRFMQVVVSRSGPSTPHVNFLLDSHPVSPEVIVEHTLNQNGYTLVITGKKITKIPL
# Experimental: To characterize the pattern of recognition of the 3 selected antibodies, 3 ELISA have been set up with the recombinant c-Met protein, its monomeric fragment (obtained by cleavage of the recombinant c-Met-Fc protein and the recombinant SEMA domain.
# To perform these ELISA the human dimeric c-Met protein (R&D sytems, cat#358MT) is coated at the concentration of 0.7 μg/ml in PBS overnight at 4° C. After saturation of the plates (Costar #3690) with a 0.5% gelatin solution 2 hours at 37° C., hybridoma supernatants are incubated 1 hour at 37° C. Once rinsed with PBS, the anti-mouse HRP-antibody (Jackson ImmunoResearch, catalog #115-035-164) is added to each well at a 1/5000 dilution in ELISA buffer (0.1% gelatin/0.05% Tween 20 in PBS) and the plates incubated for 1 hour at 37° C. […] The reaction is left to occur for 5 min at room temperature. The reaction is stopped by the addition of 50 μl/well of a 1 M H2SO4 solution and read on a plate reader at 450 nm. The same kind of protocol was performed on monomeric c-Met and SEMA domain but in that cases proteins were coated at 5 and 3 μg/ml respectively.
# NCI-H441 [2] = test: NCI-H441 xenograft model (Example 11)
# Text: The evaluation of anti-c-met antibodies on the in vivo activity of this non autocrine cell line could give some insights about their potency to impact on c-met dimerization.
# [3] = biological target: T3, recombinant c-Met-Extra-Cellular Domain (ECD) fused to an human IgG Fc domain (Homo sapiens, UniProt P08581); test: Determination of affinity constants (KD) by Biacore analysis; type: binding; conditions: first column; Fab fragments, 25° C.
# T3 construct: recombinant c-Met-Extra-Cellular Domain (ECD) fused to an human IgG Fc domain (R&D Systems) as antigen; purchased R&D Systems
# T3 sequence (P08581 25-932 limits assumed): as the sequence (P08581 25-932 limits assumed) above
# Text: The binding affinity of purified 11E1 and 224G11 antibodies was investigated by BIAcore X using recombinant c-Met-Extra-Cellular Domain (ECD) fused to an human IgG Fc domain (R&D Systems) as antigen (MW=129 kDa). As both c-Met-Fc fusion proteins and antibodies are bivalent compounds, Fab fragments of mAbs 11E1 and 224G11 (MW=50 kDa) were generated by papain cleavage, purified and used in this assay to avoid interference with avidity parameter. For the assay, an anti-Tag histidine capture antibody was coated on CM5 sensorchips. The running buffer was HBS-EP, the flow rate was 30 μl/min and the test was performed at 25° C. Soluble c-Met (ECD_M1)2-Fc-(HHHHHH)2 antigen was captured on the sensorchip (around 270 RU), and the antibodies to be tested were used in solution as analytes. The sensorship was regenerated using Glycine, HCl pH 1.5 buffer on both flowcells for half a minute.
molecule,measurement,setting,value
"CCC1=C[C@@H]2CN(C1)Cc1c([nH]c3ccccc13)[C@@](C(=O)OC)(c1cc3c(cc1OC)N(C)[C@H]1[C@@](O)(C(=O)OC)[C@H](OC(C)=O)[C@]4(CC)C=CCN5CC[C@]31[C@@H]54)C2 [Navelbine®, reference compound]",reduction of average tumor volume,NCI-H441 [1],76%
"227H1: murine anti-c-Met monoclonal antibody, IgG1 kappa; heavy chain SEQ ID No. 19, light chain SEQ ID No. 22 (antibody, V domains shown, mus musculus) VH: EVQLQQSGPELVKPGASMKISCKASGYSFTDYTLNWVKQSHGKTLEWIGLINPYNGGTTYNQKFKGKATLTVDKSSSTAYMELLSLTSEDSAVYYCAREEITKDFDFWGQGTTLTVSS VL: GIVLTQSPASLAVSLGQRATISCRVSESIDTYGNSFIHWYQQKPGQPPKLLIYRASNLESGIPARFSGSGSRTDFTLTINPVEADDSATYYCQQSNEDPFTFGSGTKLEMK",maximum of HGF binding displacement,HGF-cMet,100%
same,agonist activity on cell proliferation,BxPC3 cells,without any agonist activity
same,"agonist effect on invasion, added alone",A549 cells,No agonist effect
same,inhibition of dimerization,c-Met,52%
same,binding to SEMA domain,SEMA domain,did not bind
same,inhibition of in vivo growth of NCI-H441,NCI-H441 [2],inhibited significantly
"11E1 Fab: Fab fragment of mAb 11E1 generated by papain cleavage (antibody, V domains shown) VH: QVQLQQSGAELAKPGASVKMSCKASGYTFTSYWMNWVKQRPGQGLEWIGYINPTTGSTDYNQKLKDKATLTADKSSNTAYMQLSSLTSEDSAVYYCAIGGYGSWFAYWGQGTLVTVSA VL: QIVLTQSPAIMSASPGEKVTLTCSASSSVSSTYLYWYQQKPGSSPKLWIYTTSILASGVPARFSGSGSGTSYSLTISSMETEDAASYFCHQWSSYPFTFGSGTKLDIK",Kon1 × 10^−6 [1/M · s],[3],1.13 ± 0.01 × 10^−6 [1/M · s]
"224G11 Fab: Fab fragment of mAb 224G11 generated by papain cleavage (antibody, V domains shown) VH: EVQLQQSGPELVKPGASVKISCKTSGYIFTAYTMHWVRQSLGESLDWIGGIKPNNGLANYNQKFKGKATLTVDKSSSTAYMDLRSLTSEDSAVYYCARSEITTEFDYWGQGTALTVSS VL: DIVLTQSPASLAVSLGQRATISCRASESVDSYANSFMHWYQQKPGQPPKLLIYRASNLESGIPARFSGSGSRTDFTLTINPVEADDVATYYCQQSKEDPLTFGSGTKLEMK",Kon1 × 10^−6 [1/M · s],[3],2.04 ± 0.01 × 10^−6 [1/M · s]
